Data published in US7056900B2, “Disaccharide derivatives for treating hyperglycaemia” (Sudzucker Aktiengesellschaft Mannheim Ochsenfurt, priority 1997, dated 2006).

Tests used:
[1] = substrate: OC[C@H]1O[C@@](CO)(O[C@H]2O[C@H](CO)[C@@H](O)[C@H](O)[C@H]2O)[C@@H](O)[C@@H]1O; assay: Inhibition of SI-catalyzed hydrolysis of sucrose (SI/sucrose), coupled HK/G6PDH optical test; type: biochemical, hog; conditions: other: SI/sucrose basic kinetics, substrate, mean, 37° C., pH 7.0
Procedure: A) The activity of the SI enzyme complex was studied using three different substrates, that is to say sucrose, maltose and isomaltose.
B) In the methods described hereinafter for determining the enzyme activity of sucrase/isomaltase and glucoamylase/maltase under the influence of the substances tested, the amount of glucose or fructose released was determined as measured parameter. […] The measurement was made at 37° C. and a pH of 7.0.
(§1) In individual tests, the semimicro assay was used, but this was reduced in some cases to a micro assay.
(§2) C) Before the inhibitor strengths were determined, for each enzyme-substrate combination basic kinetics were established in which not only the Michaelis-Menten constant (KM [mmol/l]) but also the maximum velocity (Vmax [μmol/mLmin]) were determined. […]
(§3) The level of the inhibitor concentrations used depended on the strength of the resulting inhibition. […] The inhibitor constants Ki and Kii were, unless stated otherwise, determined from secondary Lineweaver-Burk plots.

[2] = substrate: OC[C@H]1O[C@H](O[C@H]2[C@H](O)[C@@H](O)[C@H](O)O[C@@H]2CO)[C@H](O)[C@@H](O)[C@@H]1O; assay: Inhibition of SI-catalyzed hydrolysis of maltose (SI/maltose), coupled HK/G6PDH optical test; type: biochemical, hog; conditions: other: SI/maltose basic kinetics, substrate, mean, 37° C., pH 7.0
Procedure: The maltase activity was studied using the substrate maltose.
B) In the methods described hereinafter for determining the enzyme activity of sucrase/isomaltase and glucoamylase/maltase under the influence of the substances tested, the amount of glucose or fructose released was determined as measured parameter. This took place in an enzymatic optical test using hexokinase (HK) and glucose-6-phosphate dehydrogenase (G6PDH) as a coupled detection system (Beutler, H.-O.; in: Methods of Enzymatic Analysis; Bergmeyer, H. U.; Bergmeyer, J.; Graβl, M. (editors); 3rd edition; Vol. VI, 2–10). The measurement was made at 37° C. and a pH of 7.0.
as §1, §2, §3

B1: sucrase/isomaltase (SI) (Sus scrofa) (protein)
chain: MARKKFSGLEISLIVLFAIVTIIAIALVVVLATKTPAVEEISDSTSTPATTRTTTPYPGSGKCPSELNDPINERINCIPDQFPTQTLCATRGCCWKPWNDSIIPWCFFVDNHGYNVEGTTSTNTGLEAKLNRIPSPTLFGDDINSVLLTTQSQTPNRFRFKITDPNNRRYEVPHQFVKEFSGTAASDTLYDVQVIENPFSIKIIRKSNNRILFDTSIGPLVYSDQYLQLSARLSSEYIYGIGEHIHKRFRHDLYWKTWPIFTRDQLPGDNNNNLYGHQTFFMCIEDTSGKSFGVFLMNSNAMEIFIQPTPIVTYRIIGGILDFYIFLGDTPEQVVQQYQELIGRPAMPAYWSLGFQLSRWDYKSLDVVKEVVQRNREAGIPFDTQVTDIDYMEDKKDFTYDHVAFNGLPEFVQDLHDHGQKYVIILDPAISIQKLASGAAYETYDRGTAQNVWINESDGTTAIIGEVWPGLTVYPDFTSPNCIEWWANECSIFHQVVNYDGLWIDMNEVSSFVHGSEKGCSDNKLNYPPFTPGILDKLLYAKTVCMDSVQYWGKQYDVHSLYGYSMAIATEKAVEKVFRNKRSFILTRSTFAGSGSHAAHWLGDNTASWEQMEWSITGMLEFSLFGIPLVGADICGFVVETTEELCRRWMQLGAFYPFSRNHNAQGYEHQDPAFFGQNSLLVNSSKHYLNIRYTLLPFLYTLFYKAHMFGETVVRPILHEFYEDTNSWIEDTQFLWGPSLLITPVLKQGASTVSAYIPNATWYDYETGAKRPWRKQRVDMYLPADKIGLHLRGGYIIPIQQPAVTTTASRKNPLGLIVALDEYNTAEGDFFWDDGETKDTIQNGSYIFYTFSVSNNKLDIMCTHSSYQEGTTLAFETIKILGLIDAVTEVSVVEGDQPMSAHYNFTYDASNQYLLIYNLKFNLGRNFTVQWDQTFLDAEKFTCYPDTDTITKELCEERGCLWQESHLESKAPECFFPKEDNSYLVQSTQYSSLGVTADLQLNTASTRIKLPSDPIPTLRVEVKYHKDYMLQFKIYDPQNKRYEVPVPLNIPTTPTSTYENRLYDVEIKENPFGIQIRRRSTGKVIWDSRLPGFAFNNQFIQISTRLPSEYIYGFGEVEHTAFKRDLNWNTWGMFTRDQPPGYKLNSYGFHPYYMALEDESHAHGVLLLNSNAMDVTFQPTPALTYRIIGGILDFYMFLGPSPEVATKQYHEVIGRPVMPPYWALGFQLCRYGYRNTSQVEEVYNDMVTAQIPYDVQYTDIDYMERQLDFTIGEEFRELPKFVDKIRNEGMRYIIILDPAISGNETEPYPAFDRGQEKDVFVKWPNTSDICWAKVWPDLPNVTIDESLTEDEAVNASRAHVAFPDFFRNSTAEWWAREIIDFYNNQMKFDGLWIDMNEPSSFVNGTTTNQCRNTELNYPPYFPELTKRTEGLHFRTMCMETEQILSDGSSVLHYDVHNLYGWSQVKPTYDALQKATGKRGIVISRSTYPTAGRWAGHWLGDNYAKWDNLDKSIIGMMEFSLFGISYTGADICGFFNNSEYQLCARWMQLGAFYPYSRNHNIAFTRRQDPASWNETFSEMSRNILNIRYTLLPYFYTQMHEIHAYGGTVIRPLLHEFFNEKPTWDIFKQFLWGPAFLVTPVLEPFADTVQGYVPNARWFDYHTGKDIGIRETFHIFSAPLYEINLHVRGGHILPCQEPAQNTFFSRQNFMKLIVAADDNQTAQGNLFWDDGETIDTYERDLYFLVQFNFNKSILTSTILKNSYINRNEMRLGYVLIWGKEKTSVNEVNLIYNGNKETVPFVEDLNQEILNIDLRGLNVTLDEPIEISWS
notes: isolated by papain digestion from hog small intestine mucosa and enriched by ammoniumsulfate precipitation; from tissue; host or cells: hog small intestine mucosa
Km [1]: 58.8 ± 11.4 mM
Vmax [1]: 7700 µM/min
Km [2]: 11.2 ± 2.6 mM
Vmax [2]: 5900 µM/min
